These results are taken from PMC8699845.

Experiment [1] concerns the target Recombinant human Wnt Inhibitory Factor 1 (human) (UniProt Q9Y5W5). The experiment in a line: SPR; BIACORE X; WIF1 or WIF domain amine-coupled to CM5 chip, rhShh injected at 20 µL/min; 20 mM Tris, 150 mM NaCl, 5 mM EDTA, 0.005% Tween 20, 100 µM CHAPS, pH 7.4; 1:1 Langmuir fit. For orientation: Surface plasmon resonance follows binding to a sensor surface in real time, without labels.

For experiment [2], the target named is WIF domain of human WIF1 protein (human) (UniProt Q9Y5W5). The experiment is described as above.
The target of experiment [3] is dually lipidated recombinant human sonic hedgehog (human).

Sequence of UniProt Q9Y5W5 (Q9Y5W5 29-379): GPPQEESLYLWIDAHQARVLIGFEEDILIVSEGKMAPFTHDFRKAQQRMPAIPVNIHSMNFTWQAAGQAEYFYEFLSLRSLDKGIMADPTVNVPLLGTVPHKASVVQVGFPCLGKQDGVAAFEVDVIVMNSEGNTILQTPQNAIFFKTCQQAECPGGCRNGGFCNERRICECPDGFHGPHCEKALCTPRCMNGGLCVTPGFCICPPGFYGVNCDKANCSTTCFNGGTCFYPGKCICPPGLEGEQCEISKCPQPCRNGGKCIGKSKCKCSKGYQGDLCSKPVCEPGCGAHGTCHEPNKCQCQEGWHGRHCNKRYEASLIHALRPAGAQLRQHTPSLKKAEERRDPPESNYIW

The term Kd denotes the concentration at which binding is half-saturated. Usually koff stands for the first-order rate constant of dissociation. In general, kon refers to a measure of how fast the partners come together. Turning to “dually lipidated recombinant human sonic hedgehog (ligand)”, in experiment [1], the Kd was 2.06 nM, the koff was 0.000141 s⁻¹ and the kon worked out at 68500 M⁻¹ s⁻¹. In experiment [2], this molecule yielded a Kd of 1.18 nM, a koff of 5.03e-05 s⁻¹ and a kon of 42600 M⁻¹ s⁻¹.

B1: WIF domain of human WIF1 protein (domain or fragment)
chain: LWIDAHQARVLIGFEEDILIVSEGKMAPFTHDFRKAQQRMPAIPVNIHSMNFTWQAAGQAEYFYEFLSLRSLDKGIMADPTVNVPLLGTVPHKASVVQVGFPCLGKQDGVAAFEVDVIVMNSEGNTILQTPQNAIFFKTC
In the case of B1, in experiment [3], the Gli luciferase reporter in Gli Reporter-NIH3T3 cells; inhibition of the signaling activity of 0.2 nM rhShh preincubated with 0-50 nM WIF domain; EC50 was found to be 2.75 nM.
